The data set concerns the molecule itself. In words: 2D electron crystallography; lysenin in a lipid bilayer (liposomes containing SM); 2D crystals, trigonal array with space group p3, projection map at 14 Å.

B1: lysenin (natural protein)
chain: MSAKAAEGYEQIEVDVVAVWKEGYVYENRGSTSVDQKITITKGMKNVNSETRTVTATHSIGSTISTGDAFEIGSVEVSYSHSHEESQVSMTETEVYESKVIEHTITIPPTSKFTRWQLNADVGGADIEYMYLIDEVTPIGGTQSIPQVITSRAKIIVGRQIILGKTEIRIKHAERKEYMTVVSRKSWPAATLGHSKLFKFVLYEDWGGFRIKTLNTMYSGYEYAYSSDQGGIYFDQGTDNPKQRWAINKSLPLRHGDVVTFMNKYFTRSGLCYDDGPATNVYCLDKREDKWILEVVG
notes: A thrombin cleavage site and six histidines follow the C terminus (printed as …); also called WT lysenin; native lysenin; source: E. coli BL21, purified (Ni-NTA IMAC, SEC)
As for B1, the binding result is recorded as “binds”.

These data come from paper PMC3526787, “Structures of Lysenin Reveal a Shared Evolutionary Origin for Pore-Forming Proteins And Its Mode of Sphingomyelin Recognition” (Structure(London, England:1993), 2012).
